Assay results taken from paper PMC6126716.

Molecular target: human asialo-haptoglobin, phenotype 1-1 (Hp heterotetramer of two α1 and two β-subunits) (human) (UniProt P00738)
Assay: native MS

## human hemoglobin holo-heterodimer (αHb and βHb) (from UniProt P69905 1-142; P68871 1-147) (complex)
  stoichiometry N (Hb heterodimers per Hp heterotetramer): 2
